Data from patent US20030187223A1 (US Dept. of Health and Human Services, published 2003).

Target: T1, bovine serum albumin (bovine, UniProt P02769 25-607)
T1 construct: Control coat in the ELISA; also called BSA
Assay: ELISA, wells coated with BSA alone, Wg conditioned medium
Experimental: First, an ELISA was used to measure sFRP-1 binding to Wg. Wells were coated with purified full-length sFRP-1 and then blocked with an excess of BSA. Subsequently, conditioned medium from S2HSWg cells expressing soluble Wg was incubated in the wells overnight at room temperature. As a control, aliquots of the same medium were incubated in wells treated with BSA but not sFRP-1. […] In contrast, little Wg was detected in wells that had not been treated with sFRP-1 , and no signal was observed when medium lacking Wg was used in the assay (FIG. 3, A and B).
sFRP-1/Wg ELISA Binding Assays—sFRP-1 diluted in 0.02% NaN₃/PBS was incubated in 96-well Falcon ELISA plates (300 ng/[…]) for 2 h at 37° C. After decanting, all wells were filled with 4% BSA/0.02% NaN₃/PBS and incubated for an additional 2 h at 37° C. Following five washes with TAPS (0.05% Tween-20 in 0.02% NaN₃/PBS), […] of Wg-containing or S2 control medium diluted in 1% BSA/TAPS were incubated overnight at room temperature. After five washes with TAPS, […] of Wg mAb diluted in 1% BSA/TAPS to a final concentration of […] was incubated in wells for 2 h at 37° C. Another five washes in TAPS were followed by a 2 h treatment at 37° C. with 1:400 dilution of conjugated alkaline phosphatase-goat anti-mouse IgG (Sigma). […] Absorbance at 405 nm was measured with an ELISA plate reader (Bio-Rad, Hercules, Calif.). […]

T1 sequence (P02769 25-607 limits assumed): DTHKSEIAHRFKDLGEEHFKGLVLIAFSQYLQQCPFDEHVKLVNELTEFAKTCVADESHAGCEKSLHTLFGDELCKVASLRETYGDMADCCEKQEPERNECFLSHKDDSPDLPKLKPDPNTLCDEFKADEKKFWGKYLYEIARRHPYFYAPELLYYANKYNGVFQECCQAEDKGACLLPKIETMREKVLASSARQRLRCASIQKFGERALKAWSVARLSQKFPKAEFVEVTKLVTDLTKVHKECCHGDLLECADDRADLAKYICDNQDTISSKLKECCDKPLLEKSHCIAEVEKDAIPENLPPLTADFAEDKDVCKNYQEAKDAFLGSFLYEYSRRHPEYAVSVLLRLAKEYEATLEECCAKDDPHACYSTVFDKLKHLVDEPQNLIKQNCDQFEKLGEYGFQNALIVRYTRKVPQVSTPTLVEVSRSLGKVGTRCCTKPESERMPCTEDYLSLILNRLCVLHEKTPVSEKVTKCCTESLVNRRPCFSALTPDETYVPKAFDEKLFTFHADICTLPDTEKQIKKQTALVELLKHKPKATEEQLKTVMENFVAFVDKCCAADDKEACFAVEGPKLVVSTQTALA

binding result: no binding
B1: Wingless (Wg), soluble, in conditioned medium of S2HSWg cells (ligand, Drosophila melanogaster, UniProt P09615 18-468, looked up)
chain: GSSLSQVEGKQKSGRGRGSMWWGIAKVGEPNNITPIMYMDPAIHSTLRRKQRRLVRDNPGVLGALVKGANLAISECQHQFRNRRWNCSTRNFSRGKNLFGKIVDRGCRETSFIYAITSAAVTHSIARACSEGTIESCTCDYSHQSRSPQANHQAGSVAGVRDWEWGGCSDNIGFGFKFSREFVDTGERGRNLREKMNLHNNEAGRAHVQAEMRQECKCHGMSGSCTVKTCWMRLANFRVIGDNLKARFDGATRVQVTNSLRATNALAPVSPNAAGSNSVGSNGLIIPQSGLVYGEEEERMLNDHMPDILLENSHPISKIHHPNMPSPNSLPQAGQRGGRNGRRQGRKHNRYHFQLNPHNPEHKPPGSKDLVYLEPSPSFCEKNLRQGILGTHGRQCNETSLGVDGCGLMCCGRGYRRDEVVVVERCACTFHWCCEVKCKLCRTKKVIYTCL
notes: Used as unpurified conditioned medium; also called Wg medium; Wg-containing medium
